Laboratory results from publication PMC3294029 (2013).

T1: N-CoR RID2 peptide (Homo sapiens)
T1 chain: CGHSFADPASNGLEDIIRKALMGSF

T2: ACTR NR box 3 peptide (Homo sapiens, 521 nM ATRA, Rhodamine Red-labelled peptide)
T2 chain: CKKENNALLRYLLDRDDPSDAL

T3: ACTR NR box 3 peptide (Homo sapiens, Rhodamine Red-labelled peptide)
T3 chain: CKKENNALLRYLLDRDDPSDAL

T4: N-CoR RID2 peptide (Homo sapiens, 209 nM ATRA, Rhodamine Red-labelled peptide)
T4 chain: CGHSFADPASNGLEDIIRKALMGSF

T5: N-CoR RID2 peptide (Homo sapiens, Rhodamine Red-labelled peptide)
T5 chain: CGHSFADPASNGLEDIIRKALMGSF


Key:
Assay in all cases: fluorescence anisotropy
[1] = target: T1, N-CoR RID2 peptide
[2] = target: T2, ACTR NR box 3 peptide
[3] = target: T3, ACTR NR box 3 peptide
[4] = target: T4, N-CoR RID2 peptide
[5] = target: T5, N-CoR RID2 peptide

| Kd [1] [µM] | Kd [2] [µM] | Kd [3] [µM] | Kd [4] [µM] | Kd [5] [µM] | Binder |
| --- | --- | --- | --- | --- | --- |
| 12.2 |  |  |  |  | RARα LBD (protein) ESYTLTPEVGELIEKVRKAHQETFPALCQLGKYTTNNSSEQRVSLDIDLWDKFSELSTKCIIKTVEFAKQLPGFTTLTIADQITLLKAACLDILILRICTRYTPEQDTMTFSDGLTLNRTQMHNAGFGPLTDLVFAFANQLLPLEMDDAETGLLSAICLICGDRQDLEQPDRVDMLQEPLLEALKVYVRKRRPSRPHMFPKMLMKITDLRSISAKGAERVITPKMEIPGSMPPLIQEMLENSEGLD |
|  | 55 | 155 | 74.2 | 18.9 | RARα LBD (protein) ESYTLTPEVGELIEKVRKAHQETFPALCQLGKYTTNNSSEQRVSLDIDLWDKFSELSTKCIIKTVEFAKQLPGFTTLTIADQITLLKAACLDILILRICTRYTPEQDTMTFSDGLTLNRTQMHNAGFGPLTDLVFAFANQLLPLEMDDAETGLLSAICLICGDRQDLEQPDRVDMLQEPLLEALKVYVRKRRPSRPHMFPKMLMKITDLRSISAKGAERVITLKMEIPGSMPPLIQEMLENSEGLD |
| 18.6 |  |  |  |  | RARα LBD (protein) ESYTLTPEVGELIEKVRKAHQETFPALCQLGKYTTNNSSEQRVSLDIDLWDKFSELSTKCIIKTVEFAKQLPGFTTLTIADQITLLKAACLDILILRICTRYTPEQDTMTFSDGLTLNRTQLHNAGFGPLTDLVFAFANQLLPLEMDDAETGLLSAICLICGDRQDLEQPDRVDMLQEPLLEALKVYVRKRRPSRPHMFPKMLMKITDLRSISAKGAERVITLKMEIPGSMPPLIQEMLENSEGLD |
| 10.9 |  |  |  |  | RARα LBD (protein) ESYTLTPEVGELIEKVRKAHQETFPALCQLGKYTTNNSSEQRVSLDIDLWDKFSELSTKCIIKTVEFAKQLPGFTTLTIADQITLLKAACLDILILRICTRYTPEQDTMTFSDGLTLNRTQMHNAGFGPLTDLVFAFANQLLPLEMDDAETGLLSAICLICGDRQDLEQPDRVDMLQEPLLEALKVYVRKRRPSRPHMFPKMLMKITDLRSISAKGAERVITLKMEIPGSMPPLIQETLENSEGLD |
